Marks after values point to notes of the source that are not given here.
What was measured:
leukocytes = experiment: treatment of rat models with leucopenia caused by cyclophosphamide, leukocyte count; assay type: in vivo; details: for leukocyte number before: baseline after CP modeling, before treatment
From the text: Utilizing Wistar rats in the experiments, wherein 18 rats weighing about 100 g are utilized. […] The experiment has an rLZ-8 low-dosage group, an rLZ-8 middle-dosage group, an rLZ-8 high-dosage group, an rLZ-8-HSA low-dosage group, an rLZ-8-HSA middle-dosage group, an rLZ-8-HSA high-dosage group, and a positive medicine control group (utilizing the […]®). […] On the third day, the blood is sampled from the tail vein, and the leukocytes are counted by a cytoanalyzer. After successful modeling, the rats of each the group are respectively treated with the rLZ-8, the three kinds of the fusion proteins, or the positive medicine (the […]®) with the corresponding dosage, and the equal sterile saline is given to the rats of the normal control and a CP group. The blood is sampled from the tail vein on the first, third and seventh treatment days, and the leukocytes are counted by the cytoanalyzer. Medicine efficacy is analyzed according to a number difference of the leukocyte between before and after the treatment.

[1] = system: mouse melanoma cells B16-F10; experiment: mouse B16-F10 transplanted tumor model, in situ tumor weight; assay type: in vivo; details: tail vein once a day, 28 days
Protocol: In vivo experiment: firstly, establishing a mouse tumor mould, wherein mouse melanoma cells B16-F10 is cultured with the DMEM comprising 10% fetal calf serum at 37° C. in a CO2 incubation device; slowly subcutaneously injecting 200 μl B16-F10 cell suspension (comprising 1×10^7 cells) with a 1 ml injector at mouse dorsal-ventral skin, so as to establish a mouse transplanted tumor mould.

[2] = high-dosage 60 μg/kg (LZ-8 dosage)
[3] = low-dosage 15 μg/kg (LZ-8 dosage)
[4] = middle-dosage 30 μg/kg (LZ-8 dosage)

Row | Molecule | leukocyte number relative to the rLZ-8 groups with the same dosage (leukocytes; first treatment day) | leukocyte number on the first treatment day (leukocytes; [2]) [L⁻¹] | leukocyte number on the seventh treatment day (leukocytes; [2]) [L⁻¹] | leukocyte number on the third treatment day (leukocytes; [2]) [L⁻¹] | leukocyte number before (leukocytes; [2]) [L⁻¹] | leukocyte number on the first treatment day (leukocytes; [3]) [L⁻¹] | leukocyte number on the seventh treatment day (leukocytes; [3]) [L⁻¹] | leukocyte number on the third treatment day (leukocytes; [3]) [L⁻¹] | leukocyte number before (leukocytes; [3]) [L⁻¹] | leukocyte number on the first treatment day (leukocytes; [4]) [L⁻¹] | leukocyte number on the seventh treatment day (leukocytes; [4]) [L⁻¹] | leukocyte number on the third treatment day (leukocytes; [4]) [L⁻¹] | leukocyte number before (leukocytes; [4]) [L⁻¹] | tumor inhibition rate ([1]; high-dosage 492 μg/kg (LZ-8)) [%] | tumor weight ([1]; high-dosage 492 μg/kg (LZ-8)) [g] | tumor inhibition rate ([1]; low-dosage 123 μg/kg (LZ-8)) [%] | tumor weight ([1]; low-dosage 123 μg/kg (LZ-8)) [g] | tumor inhibition rate ([1]; middle-dosage 246 μg/kg (LZ-8)) [%] | tumor weight ([1]; middle-dosage 246 μg/kg (LZ-8)) [g]
1 | rLZ-8-HSA: fusion protein of ganoderma immunoregulatory protein (LZ-8) and human serum albumin, linker GGGGSS, SEQ ID NO. 1 (protein, rLZ-8-HSA sequence) SDTALIFRLAWDVKKLSFDYTPNWGRGNPNNFIDTVTFPKVLTDKAYTYRVAVSGRNLGVKPSYAVESDGSGKVNFLEYNSGYGIADTNTIGVFVVDPDTNNDFIIAGWNGGGGSSMKWVTFISLLFLFSSAYSRGVFRRDAHKSEVAHRFKDLGEENFKALVLIAFAGYLGGCPFEDHVKLVNEVTEFAKTCVADESAENCDKSLHTLFGDKLCTVATLRETYGEMADCCAKGEPERNECFLGHKDDNPNLPRLVRPEVDVMCTAFHDNEETFLKKYLYEIARRHPYFYAPELLFFAKRYKAAFTECCGAADKAACLLPKLDELRDEGKASSAKGRLKCASLGKFGERAFKAWAVARLSGRFPKAEFAEVSKLVTDLTKVHTECCHGDLLECADDRADLAKYICENGDSISSKLKECCEKPLLEKSHCIAEVENDEMPADLPSLAADFVESKDVCKNYAEAKDVFLGMFLYEYARRHPDYSVVLLLRLAKTYETTLEKCCAAADPHECYAKVFDEFKPLVEEPGNLIKGNCELFEGLGEYKFGNALLVRYTKKVPGVSTPTLVEVSRNLGKVGSKCCKHPEAKRMPCAEDYLSVVLNGLCVLHEKTPVSDRVTKCCTESLVNRRPCFSALEVDETYVPKEFNAETFTFHADICTLSEKERGIKKGTALVELVKHKPKATKEGLKAVMDDFAAFVEKCCKADDKETCFAEEGKKLVAASGAALGL | about 2 times | 8.4e+09 | 1.55e+10 | 1.44e+10 | 3.33e+09 | 8.5e+09 | 1.32e+10 | 1.08e+10 | 3.11e+09 | 9.2e+09 | 1.34e+10 | 1.198e+10 | 2.89e+09 | 89.51 ± 0.88 | 0.13 ± 0.05 | 71.77 ± 0.31 | 0.35 ± 0.11 | 78.22 ± 0.47 | 0.27 ± 0.14
2 | rLZ-8: recombinant ganoderma immunoregulatory protein which is not fused, comparator (protein, UniProt P14945 2-111, looked up) Immunomodulatory protein Ling …: SDTALIFRLAWDVKKLSFDYTPNWGRGNPNNFIDTVTFPKVLTDKAYTYRVAVSGRNLGVKPSYAVESDGSQKVNFLEYNSGYGIADTNTIQVFVVDPDTNNDFIIAQWN | – | 5.4e+09 | 1.45e+10 | 9.6e+09 | 4.09e+09 | 4.6e+09 | 1.12e+10 | 9.3e+09 | 3.71e+09 | 5.1e+09 | 1.278e+10 | 9.7e+09 | 3.12e+09 | 83.04 ± 0.51 | 0.25 ± 0.04 | 56.72 ± 0.41 | 0.53 ± 0.21 | 64.91 ± 0.77 | 0.43 ± 0.17
